Assay results as given in the supplement of paper PMC12042874.
± gives the uncertainty stated by the source.

Experiment: amyloid nucleation score (Sup35N fusion, yeast selection) (log enrichment); library NNK2; higher = more nucleation; inactive = no reads after selection
Summary of the method: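 Output and input plasmid inserts were sequenced by Illumina after psi-negative yeast carrying Sup35N fused to peptides of 20 random codons had been induced 24 hours with 100 μM copper sulfate and grown 7 days at 30°C on medium lacking adenine and uracil. The nucleation score is the DiMSum log enrichment of output over input reads, centred on the mode score of non-aggregating sequences. Sequences with under 100 input reads were excluded.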
LISLTPRSSRPSNERNSSTL gave an amyloid nucleation score of 1.63 ± 0.47. In the case of LIVCRFDFPSNFSVDFFRVM, the amyloid nucleation score is reported as 0.14 ± 0.74. In the case of LIVYKLV, the amyloid nucleation score is reported as -0.094 ± 0.74. With LIYGDASETLC the amyloid nucleation score was 0.227 ± 0.43. LKFRRYVCKVLWEAYG showed an amyloid nucleation score of 0.153 ± 0.43. Work on LKLRAPRVMSGIVDSLMWLT yielded an amyloid nucleation score of -0.32 ± 0.63. With LKNRILPFSNHELIVAGLGL the amyloid nucleation score was -0.388 ± 1. LKNYSGLMPVI showed an amyloid nucleation score of 3.41 ± 0.068. For LKPPLVAHHGNILCGFLGDG, the amyloid nucleation score was -1.39 ± 0.78. LKVRKLSLARCVGIHTLQT gave an amyloid nucleation score of 4.4 ± 0.06. Substance LLACVSVMFLRSSLINLDRL has an amyloid nucleation score of -0.637 ± 0.54. For LLAIVVILKSTAPGKRY, the amyloid nucleation score was “inactive”. For LLAKNTSRNRFTHDFVPKVR, the amyloid nucleation score was “inactive”. LLASFGFRKVKIYTLPCILA gave an amyloid nucleation score of -1.15 ± 0.76. With LLATSWSVLEDLYAGNDLYD the amyloid nucleation score was “inactive”. LLERSRSSIMCTTNRSLELI showed an amyloid nucleation score of 3.18 ± 0.055. Substance LLFIIMRDLLYPTLEDTFLT has an amyloid nucleation score of 0.317 ± 0.5. For LLFMWTWVVVIGRKYANNYF, the amyloid nucleation score was “inactive”. Work on LLGGHYP yielded an amyloid nucleation score of 0.844 ± 0.52. LLGGWESHSRRNVWYAAGLC showed an amyloid nucleation score of -0.711 ± 1.1. LLISSLLTSDLLGPSSSVMD showed an amyloid nucleation score of 1.51 ± 0.58. In the case of LLIVNCMLANYSFWIQSSGS, the amyloid nucleation score is reported as 5.968 ± 0.029. Substance LLLLF has an amyloid nucleation score of -1.58 ± 0.75. LLLNILLCIDPYIPWCLSLR showed an amyloid nucleation score of 0.974 ± 0.57. In the case of LLLNLMLVHTSMTFVRIKLR, the amyloid nucleation score is reported as 3.13 ± 0.12. With LLLSRGFMGVSKRSMVYRRV the amyloid nucleation score was “inactive”. LLLVRFAPISV showed an amyloid nucleation score of -0.176 ± 1.1. LLNCNCIVV showed an amyloid nucleation score of 8.569 ± 0.031. With LLNFYGGMWRGYLTLRYVFG the amyloid nucleation score was 0.201 ± 0.6. Substance LLNVPGLVAYEIRGPMRYLF has an amyloid nucleation score of -0.519 ± 0.44. Work on LLPRCDGGVLVHLNDKSYKL yielded an amyloid nucleation score of 1.32 ± 0.39. LLPWHRIAWDAYCMWGMSSS showed an amyloid nucleation score of 0.266 ± 0.21. Work on LLPWSPLKVVTSGYSTF yielded an amyloid nucleation score of -1.03 ± 0.78. With LLRCSLHNKLTLSFDFAFVV the amyloid nucleation score was “inactive”. For LLRMKTFDHWYRAREGFAYC, the amyloid nucleation score was -0.512 ± 0.3. LLSDLFCIFVLRKSRSGGWS showed an amyloid nucleation score of 1.04 ± 0.34. LLSISCV gave an amyloid nucleation score of 0.512 ± 0.34. In the case of LLSMYRFFNTLKSC, the amyloid nucleation score is reported as -0.087 ± 0.33. In the case of LLVRFVLVATRRTLSTV, the amyloid nucleation score is reported as -0.029 ± 1.1. For LLVYAQLYRVWVWF, the amyloid nucleation score was -0.134 ± 0.22. In the case of LLWCEWKHG, the amyloid nucleation score is reported as 4.58 ± 0.076. For LLYYPIDGQGDGWLWCVYRV, the amyloid nucleation score was -0.067 ± 1.1. For LMDERGMTKMTYFVYLLKKA, the amyloid nucleation score was 0.661 ± 0.23. In the case of LMFLGWASRNLVDKSTFKWI, the amyloid nucleation score is reported as -0.843 ± 0.79. LMHFSFSVAGRAGNELLFIG gave an amyloid nucleation score of 2.46 ± 0.22. LMLAYRLIFDDNRTGLSSAS gave an amyloid nucleation score of 0.211 ± 0.5. LMMKKTGCTQFISRYLVRIY gave an amyloid nucleation score of -1.42 ± 1. Substance LMPGMVGDRRGCNDK has an amyloid nucleation score of 0.49 ± 0.26. In the case of LMWENFSRRLLYWLLCGS, the amyloid nucleation score is reported as “inactive”. With LMYSTFMYHRKHWLLALNQN the amyloid nucleation score was 0.034 ± 1.1. For LNDNSIGSVILFFSAFLLFY, the amyloid nucleation score was 2.92 ± 0.12. Work on LNLFWKQSGTVRLDDGWRSV yielded an amyloid nucleation score of 0.969 ± 0.74. For LNLKRLLLQLFSMPMPVFHV, the amyloid nucleation score was -0.023 ± 0.49. LNMMIINISFRSKSVDGSRM showed an amyloid nucleation score of 6.945 ± 0.056. LNNYRDGLSY gave an amyloid nucleation score of 4.1 ± 0.064. LNQSKFGKVGTSSVFWLFYN gave an amyloid nucleation score of -1.01 ± 0.31. Substance LNRCLDHRWIPKCVC has an amyloid nucleation score of 1.36 ± 0.46. Substance LNRISYHTYSILPNVTIMKS has an amyloid nucleation score of 0.498 ± 0.54. Work on LNSHSITMLLNSVCGCQSWT yielded an amyloid nucleation score of 9.201 ± 0.062. Substance LNTEMGSLKNL has an amyloid nucleation score of 3.08 ± 0.06. Work on LNVPGSAMNGRSRNPSF yielded an amyloid nucleation score of -0.661 ± 0.48. With LNVRLFSVFFSHTSSSHSEN the amyloid nucleation score was 3.21 ± 0.061. With LNWIIVCLNN the amyloid nucleation score was 4.98 ± 0.058. LNYCHILSMYGNIAIIRSQF gave an amyloid nucleation score of 4.48 ± 0.048. Substance LPCFL has an amyloid nucleation score of 1.93 ± 0.1. Work on LPHKIM yielded an amyloid nucleation score of 0.262 ± 0.53. LPHKSLFDPLWRIGKILIQH gave an amyloid nucleation score of 0.034 ± 1.1. For LPMNQGLHYKWLFFAISGGL, the amyloid nucleation score was “inactive”. Work on LPVVLAGS yielded an amyloid nucleation score of -0.191 ± 0.79. For LQCEIKPMGDTIMW, the amyloid nucleation score was 1.47 ± 0.54. Substance LQCGRIV has an amyloid nucleation score of -0.204 ± 0.79. LQHSTRLNWD gave an amyloid nucleation score of 0.954 ± 0.51. LQLVMKCRVKCAFLPGGMAW gave an amyloid nucleation score of 5.246 ± 0.048. Substance LQMLLHDQTEMFEYT has an amyloid nucleation score of -0.112 ± 0.28. With LQSKAGEPLGRDMRLFLVPV the amyloid nucleation score was 0.698 ± 0.58. LQTAIVGSPRLVTFRIYIER showed an amyloid nucleation score of 7.197 ± 0.065. For LQVMEIYSLSIYYIYFLYIG, the amyloid nucleation score was “inactive”. In the case of LQVRLDTRR, the amyloid nucleation score is reported as 0.043 ± 0.5. In the case of LQYAKSHRVSWDGMAANSPG, the amyloid nucleation score is reported as 0.067 ± 0.45. LQYINRGISRHVVKYSRSLS showed an amyloid nucleation score of -0.733 ± 0.41. LRARTVVGEYCYSLYMQFVM showed an amyloid nucleation score of 0.213 ± 0.43. LRCFRACQTRRAFEVLLLEF gave an amyloid nucleation score of -0.152 ± 1. Substance LRCFSHRPCPKNNIVF has an amyloid nucleation score of 0.602 ± 0.81. Work on LRFNSNHPHFRGHLYSAVQR yielded an amyloid nucleation score of 3.7 ± 0.15. For LRFRATLSVLLYLWDTSRHV, the amyloid nucleation score was 1.76 ± 0.26. In the case of LRFRKMAKKCNYVVRVVLGF, the amyloid nucleation score is reported as -0.273 ± 0.29.
